# Where a SMILES comes first, the peptide text is derived from it.
# Tests used:
# CIB2 [1] = details: cited from earlier work
# Text: In a recent study[8] we investigated the capability of CIB2 to bind Ca^2+ and Mg^2+ thereby switching to a functionally distinct structural state. By integrating several biochemical and biophysical techniques we could establish that in the absence of any cation CIB2 forms a molten globule state that essentially lacks tertiary structure. […] This is quite unusual for Ca^2+-sensor pro ... || The second approach (direct peptide immobilization) led to very low signals and unreproducible results and was not pursued any further. […] In spite of such differences, which might ... || Interaction with α7B occurs in the region proximal to the membrane and not close to the C-terminus of the cytosolic domain of the integrin. The recognition between CIB2 and the α7B target is kinetically favored in the presence of physiological Mg^2+ and in the absence of Ca^2+ and it might induce binding of another CIB2 molecule. […] However, CIB2 per se binds a single peptide as a monomer, and the complex could then induce CIB2 dimerization, ...
# human CIB2 = biological target: T1, human CIB2 (Homo sapiens, UniProt O75838); assay: Cross-linking (DSBU)/MALDI-TOF-MS of CIB2 with α7B peptides; type: binding
# T1 construct: made in house
# T1 sequence (O75838 1-187): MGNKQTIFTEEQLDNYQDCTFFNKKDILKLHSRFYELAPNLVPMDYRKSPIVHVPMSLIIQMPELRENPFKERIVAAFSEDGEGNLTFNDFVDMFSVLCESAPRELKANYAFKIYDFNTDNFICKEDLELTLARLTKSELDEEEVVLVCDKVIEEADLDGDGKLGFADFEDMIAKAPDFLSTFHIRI
# Description: CIB2 samples were cross-linked with DSBU in the presence of peptide α7B_M or α7B_Scrb as described in ref.[14] Briefly, 10 µM CIB2 was diluted in 20 mM HEPES, pH 7.5, 1 mM DTT, 1 mM Mg^2+ and 2 mM Ca^2+ and incubated with increasing peptide concentrations (5 µM, 10 µM, and 20 µM) for 10 min at room temperature. Then, 50-fold molar excess of DSBU was added and the reactions were conducted for 20 min at room temperature. As control, CIB2 was treated with DSBU without peptide. Reactions were blocked by adding ammonium bicarbonate to a final concentration of 20 mM.
# Cross-linked CIB2 samples were desalted via ZipTip C4 tips (Millipore) before MALDI-TOF-MS analysis (Ultraflex III MALDI-TOF/TOF mass spectrometer, Bruker Daltonik, Bremen) was conducted using sinapinic acid as matrix. For further details see Supplementary Methods. Baseline subtraction and spectra smoothing were performed. […]
# Cross-linking reactions and Mass Spectrometry
# Cross-linking reactions were performed with 10 µM CIB2 (in 20 mM HEPES pH 7.5, 150 mM KCl, 1 mM DTT, 1 mM Mg2+, 2 mM Ca2+) and increasing concentrations of peptides α7B_M and α7B_Scrb, ranging from 0.5:1 to 2:1 peptide:protein ratios. After incubating the samples for 10 minutes at room temperature, DSBU (freshly prepared solution, dissolved in neat DMSO) was added to the mixture at 50-fold molar excess compared to CIB2 concentration. As the final volume of the reaction mixture was 50 µL, 1 µL of 25 mM DSBU was added to each sample. After 20 minutes, the cross-linking reactions were quenched by adding ammonium bicarbonate to a final concentration of 20 mM. Samples were incubated for 10 minutes before SDS-PAGE analysis was performed (data not shown). Samples for MALDI-TOF-MS measurements were desalted by ZipTip C4 (Millipore) and desalted protein was eluted with 70% (v/v) acetonitrile / 1% (v/v) formic acid. Each sample was mixed with a saturated solution of sinapinic acid (in 50% (v/v) methanol / 0.1% (v/v) TFA) at 1:1 ratio and spotted onto the MALDI target. […]
# CIB2 [2] = details: fused with GFP and tdTomato; cited from earlier work
# Text: Our previous work with untagged purified CIB2 also concluded that CIB2 is dimeric. We now provide new lines of evidence that allow us to reconsider some of the previous findings in the light of MS ...
# [3] = Analytical size exclusion chromatography; type: physicochemical
# Description: The molecular weight (MW) of the proteins was determined before and after DSBU-modification as previously described[7] in the same buffer (20 mM HEPES, pH 7.5, 1 mM DTT, 1 mM Mg^2+ and 2 mM Ca^2+). […] Standard calibration curve for MW estimation was the same used in our previous study.
# [4] = CIB2 stability at 25 °C without trypsin (SDS-PAGE); type: physicochemical; details: 10 µM CIB2, 10 minutes at 25 °C; EDTA, Mg^2+, Mg^2+ + Ca^2+
# Description: Figure 5 CIB2 limited proteolysis. (A) 10 µM CIB2 was incubated at 25 °C in the presence of 1 mM EDTA (Apo), 500 µM EGTA + 1 mM Mg^2+ (Mg^2+) and 1 mM Mg^2+ + 2 mM Ca^2+ for 10 minutes at 25 °C. Samples were boiled and loaded in a 18% SDS polyacrylamide gel. (B) Limited proteolysis was performed incubating trypsin with 25 µM CIB2 in the same concentrations of ions used for (A) (protein:enzyme ratio was 100:1). Samples were collected at different times, boiled and loaded on a 18% SDS-PAGE. Both gels run for 45–50 min, then they were Coomassie Blue-stained. The figure results from two separate gels, which have been reported in full length in Fig. S6.
Molecule,fluorescence titration of CIB2 (CIB2 [1]; peptide intrinsic fluorescence),"1:2 CIB2/peptide complex (human CIB2; 10 µM CIB2, 5, 10, 20 µM peptide, 50-fold DSBU, 1 mM Mg^2+, 2 mM Ca^2+)","CIB2/peptide complex formation, 1:1 (human CIB2; 10 µM CIB2, 5, 10, 20 µM peptide, 50-fold DSBU, 20 mM HEPES pH 7.5, 1 mM Mg^2+, 2 mM Ca^2+, room temperature)","2:1 CIB2 and peptide complex (human CIB2; cross-linking experiments with DSBU, 1 mM Mg^2+, 2 mM Ca^2+)",dimer formation (CIB2 [2]),CIB2:target peptide stoichiometry (CIB2 [1]; fluorescence),"apparent MW (MW^SEC) ([3]; absence of cross-linker, 1 mM Mg^2+, 2 mM Ca^2+) [kDa]","MW^SEC ([3]; analytical SEC, 20 mM HEPES pH 7.4, 150 mM KCl, 1 mM DTT, 1 mM Mg^2+, 2 mM Ca^2+, CIB2 ∼70 µM (A2 band), Rec ∼80 µM, CaM ∼110 µM) [kDa]","MW^SEC, A1 shoulder ([3]; lower intensity shoulder A1 at lower elution time, predicted) [kDa]","apparent MW (MW^SEC) ([3]; presence of DSBU cross-linker, 1 mM Mg^2+, 2 mM Ca^2+) [kDa]","oligomeric state by MS and XL-MS (human CIB2; all tested conditions, MS and XL-MS)",degradation without trypsin [4]
CSCC[C@H](NC(=O)[C@H](CCCCN)NC(=O)[C@H](Cc1c[nH]c2ccccc12)NC(=O)[C@H](CC(C)C)NC(=O)[C@H](CC(C)C)NC(=O)[C@H](CC(C)C)NC(C)=O)C(=O)NCC(=O)N[C@@H](Cc1ccccc1)C(=O)N[C@@H](Cc1ccccc1)C(=O)N[C@@H](CCCCN)C(=O)N[C@@H](CCCNC(=N)N)C(=O)N[C@@H](C)C(=O)N[C@@H](CCCCN)C(=O)N[C@@H](Cc1c[nH]cn1)C(=O)N1CCC[C@H]1C(=O)N[C@@H](CCC(=O)O)C(N)=O [α7B_M] (Ac-LLLWKMGFFKRAKHPE-NH2),fluorescence variation upon titration with α7B_M was much higher,A weak signal,a 1:1 CIB2/peptide complex appears in the mass spectra,never observed,–,–,–,–,–,–,–,–
"CIB2: Recombinant human CIB2, Ca^2+ and Mg^2+-binding protein (protein, left off: His tag, end not stated, cleaved) MGNKQTIFTEEQLDNYQDCTFFNKKDILKLHSRFYELAPNLVPMDYRKSPIVHVPMSLIIQMPELRENPFKERIVAAFSEDGEGNLTFNDFVDMFSVLCESAPRELKANYAFKIYDFNTDNFICKEDLELTLARLTKSELDEEEVVLVCDKVIEEADLDGDGKLGFADFEDMIAKAPDFLSTFHIRI",–,–,–,–,found to form dimers,2:1 stoichiometry,35.9,37.8,81.3,36.7,remained monomeric in all tested conditions,some propensity to degradation

# Source: article PMC6803640, “Oligomeric state, hydrodynamic properties and target recognition of human Calcium and Integrin Binding protein 2 (CIB2)” (Scientific Reports, 2019)
